Article PMC12475115, “Arabidopsis MYB47 and MYB95 transcription factors regulate jasmonate-inducible ER-body formation”

Columns and labels:
GST-MYB47 [1] = target: T1, GST-MYB47 (Arabidopsis thaliana, UniProt Q6R0C2 1-267); experiment: EMSA; 5 mM Mg2+; 10 mM Tris-HCl pH 7.5, 50 mM KCl, 1 mM DTT, 2.5% glycerol, 5 mM MgCl2, 0.1% IGEPAL CA-630, 0.05 ug/uL poly(dI-dC); 500 ng protein, probe 5 uM; competitor 20 min then probe 30 min at room temperature; details: protein: recombinant; tags: N-terminal GST (pDEST15); label: 5' biotin on strand 1 as probe; blunt
T1 sequence: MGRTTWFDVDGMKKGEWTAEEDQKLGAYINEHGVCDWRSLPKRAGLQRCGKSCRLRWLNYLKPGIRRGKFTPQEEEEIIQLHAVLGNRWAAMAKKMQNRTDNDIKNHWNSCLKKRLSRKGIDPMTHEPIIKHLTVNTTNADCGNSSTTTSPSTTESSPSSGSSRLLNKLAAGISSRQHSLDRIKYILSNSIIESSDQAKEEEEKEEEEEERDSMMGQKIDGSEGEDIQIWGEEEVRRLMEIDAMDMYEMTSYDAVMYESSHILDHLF

GST-MYB95 [2] = target: T2, GST-MYB95 (Arabidopsis thaliana, UniProt Q7DSY5 1-271); experiment: as above; details: protein: recombinant; tags: N-terminal GST (pDEST15); label: 5' biotin on strand 1 as probe; blunt
T2 sequence: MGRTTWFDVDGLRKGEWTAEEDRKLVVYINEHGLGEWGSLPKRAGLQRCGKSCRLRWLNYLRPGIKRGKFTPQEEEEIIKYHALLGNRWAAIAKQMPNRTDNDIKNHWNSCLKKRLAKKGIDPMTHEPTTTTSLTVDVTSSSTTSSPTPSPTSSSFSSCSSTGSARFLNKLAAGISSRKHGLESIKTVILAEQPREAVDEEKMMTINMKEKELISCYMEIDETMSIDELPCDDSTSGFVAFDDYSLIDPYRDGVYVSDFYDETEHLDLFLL

GST-MYB47 [3] = target: T1, GST-MYB47; experiment: competition EMSA; 20-fold excess over pTSA1 probe; 10 mM Tris-HCl pH 7.5, 50 mM KCl, 1 mM DTT, 2.5% glycerol, 5 mM MgCl2, 0.1% IGEPAL CA-630, 0.05 ug/uL poly(dI-dC); 500 ng protein, probe 5 uM; competitor 20 min then probe 30 min at room temperature; details: protein: recombinant; tags: N-terminal GST (pDEST15); blunt
GST-MYB95 [4] = target: T2, GST-MYB95; experiment: as above; details: protein: recombinant; tags: N-terminal GST (pDEST15); blunt

B1: pTSA1 probe (dsDNA)
DNA 1: GAATGAAATCCACGTTTAAGTTAGTTACAACGGTTT
DNA 2: AAACCGTTGTAACTAACTTAAACGTGGATTTCATTC
Q: Does B1 bind (GST-MYB47 [1])?
A: Result: binds

Q: Does B1 bind (GST-MYB95 [2])?
A: Result: binds

B2: pTSA1-m1 (box1 mutated) (dsDNA)
DNA 1: GAATGAAATCTTTCCCCAAGTTAGTTACAACGGTTT
DNA 2: AAACCGTTGTAACTAACTTGGGGAAAGATTTCATTC
Q: Does B2 bind (GST-MYB47 [3])?
A: Result: binds

Q: Does B2 bind (GST-MYB95 [4])?
A: Result: binds

B3: pTSA1-m2 (box2 mutated) (dsDNA)
DNA 1: GAATGAAATCCACGTTTAACCCCTTTACAACGGTTT
DNA 2: AAACCGTTGTAAAGGGGTTAAACGTGGATTTCATTC
Q: Does B3 bind (GST-MYB47 [3])?
A: Result: no binding

Q: Does B3 bind (GST-MYB95 [4])?
A: Result: no binding
